Experimental findings from PMC3411640, “Molecular Breeding of a Fungus Producing a Precursor Diterpene Suitable for Semi-Synthesis by Dissection of the Biosynthetic Machinery” (PLoS ONE, 2012) are described below.

The subject of data set [1] is O=c1ccn([C@@H]2O[C@H](CO[P@@](=O)(O)O[P@@](=O)(O)O[C@H]3O[C@H](CO)[C@@H](O)[C@H](O)[C@H]3O)[C@@H](O)[C@H]2O)c(=O)[nH]1. As to the kind of experiment: HPLC, Hanes-Woolf. Type of data set: biochemical, Diaporthe amygdali. Conditions: 0.1 mM 9 (FC H aglycon), 50 mM MES pH 6.0, 30°C.
The test system of data set [2] is CC(=O)SCCNC(=O)CCNC(=O)[C@H](O)C(C)(C)COP(=O)(O)OP(=O)(O)OC[C@H]1O[C@@H](n2cnc3c(N)ncnc32)[C@H](O)[C@@H]1OP(=O)(O)O. As to the kind of experiment: HPLC, Hanes-Woolf. Format: biochemical, Diaporthe amygdali. Conditions: 203 µM 14 (dideacetyl-FC A), 50 mM Tris-HCl pH 8.5, 35°C.

“glycosyltransferase (Orf6) (Diaporthe amygdali)”: in data set [1], the Michaelis constant (Km) amounted to 520 ± 46 µM and the kcat amounted to 0.40±0.044 S^−1.

With “acetyltransferase-2 (Orf12) (Diaporthe amygdali)”, in data set [2], the Km turned out to be 63 ± 6.6 µM and the kcat is given as 3.5×10^−3±0.17×10^−3 S^−1.

By Km is commonly meant the concentration of substrate that gives half-maximal velocity.
